As a reminder, the Kd is the concentration at which binding is half-saturated. Read a low Kd as tighter binding.

The experiment has as its target BVDV E2 protein with 6×his tag, purified from 293F cells (bovine viral diarrhea virus (BVDV), UniProt P19711 693-1066). The experiment is described as follows: SPR. Background: In SPR one partner is held on a chip, and binding of the other changes the refractive index at the surface.

B1: bovine CD46 protein (MedChemExpress) (receptor)
chain: CDDPPRFVSMKPQGTLKPSYSPGEQIVYECHLGFQPVTPGQVLALVCQDNNTWSSLQEGCKKRRCPTLADPTNGQVILVNGSTEFGSEVHYVCNNGYYLLGTNISYCEVSSGTGVNWSDNPPTCEKILCQPPPEIQNGKYTNSHKDVFEYNEVVTYSCDPSNGPDEYSLVGESKLTCIGNGEWSSQPPQCKVVKCVYPAIEHGTIVSGFGPKYYYKATVVLKCNEGFNLYGNSVVVCGENSTWEPELPKCIKGHPPRPTDASPPNGAEG
B1 showed a dissociation constant Kd of 75.1 nM.

The record behind these values is paper PMC11633101 (2024).
